# Results from the Immune Epitope Database (IEDB).
# Columns and labels:
# HLA-B*35:01 = assay: IEDB peptide-MHC binding, purified MHC/competitive/radioactivity; filed as Kd, often an IC50 or EC50 that approximates it; ≥ and ≤ were set here for values at or beyond the usual limits of such assays
# HLA-B*54:01 = assay: as above
# HLA-B*51:01 [1] = assay: as above
# HLA-B*53:01 = assay: as above
# HLA-B*07:02 = assay: as above
# HLA-A*68:02 = assay: as above
# HLA-A*26:01 = assay: as above; conditions: source organism: Dengue virus 1 Brazil/97-11/1997
# HLA-A*02:01 = assay: as above
# HLA-A*02:06 = assay: as above
# HLA-B*57:01 = assay: IEDB peptide-MHC binding, purified MHC/direct/fluorescence; filed as Kd, often an IC50 or EC50 that approximates it; ≥ and ≤ were set here for values at or beyond the usual limits of such assays
# HLA-B*58:01 = assay: as above
# HLA-A*33:01 = assay: IEDB peptide-MHC binding, purified MHC/competitive/radioactivity; filed as Kd, often an IC50 or EC50 that approximates it; ≥ and ≤ were set here for values at or beyond the usual limits of such assays; conditions: source organism: Vaccinia virus WR
# HLA-A*68:01 = assay: as above; conditions: source organism: Vaccinia virus WR
# HLA-A*03:01 = assay: as above; conditions: source organism: Vaccinia virus WR
# HLA-A*11:01 = assay: as above
# HLA-A*31:01 = assay: as above; conditions: source organism: Vaccinia virus WR
# HLA-B*40:01 = assay: IEDB peptide-MHC binding, purified MHC/direct/fluorescence; filed as Kd, often an IC50 or EC50 that approximates it; ≥ and ≤ were set here for values at or beyond the usual limits of such assays; conditions: source organism: Influenza A virus (A/SW/MN/3227/00(H1N2))
# HLA-B*44:02 = assay: as above; conditions: source organism: Influenza A virus (A/SW/MN/3227/00(H1N2))
# HLA-B*51:01 [2] = assay: IEDB peptide-MHC binding, purified MHC/competitive/fluorescence; filed as Kd, often an IC50 or EC50 that approximates it; ≥ and ≤ were set here for values at or beyond the usual limits of such assays; conditions: source organism: Mycobacterium tuberculosis H37Ra
# HLA-A*32:01 = assay: IEDB peptide-MHC binding, purified MHC/competitive/radioactivity; filed as Kd, often an IC50 or EC50 that approximates it; ≥ and ≤ were set here for values at or beyond the usual limits of such assays; conditions: source organism: Vaccinia virus WR
# HLA-B*08:01 = assay: as above
# HLA-A*01:01 = assay: as above; conditions: source organism: Dengue virus 3 Martinique/1243/1999
# HLA-A*02:03 = assay: as above
# HLA-B*15:01 = assay: as above
# HLA-A*23:01 = assay: as above; conditions: source organism: Dengue virus 3 Martinique/1243/1999
# HLA-A*02:02 = assay: as above; conditions: source organism: Vaccinia virus WR
# [3] = source organism: SARS coronavirus Tor2
# [4] = source organism: Vaccinia virus WR
# [5] = source organism: Dengue virus 1 Brazil/97-11/1997
# [6] = source organism: Lymphocytic choriomeningitis virus (strain Armstrong)
# [7] = source organism: Dengue virus 4 Philippines/H241/1956
# [8] = source organism: Triticum aestivum
# [9] = source organism: Mammarenavirus machupoense
# [10] = source organism: Mammarenavirus juninense
# [11] = source organism: Dengue virus 3 Martinique/1243/1999
# [12] = source organism: Dengue virus 2 Jamaica/1409/1983
# [13] = source organism: Giardia lamblia ATCC 50803
sequence,measurement,setting,value
AKNPNRFVI,Kd,HLA-B*35:01; source organism: Variola virus,≥ 77400 nM
same,Kd,HLA-B*54:01; source organism: Variola virus,≥ 78100 nM
same,Kd,HLA-B*51:01 [1]; source organism: Variola virus,≥ 77400 nM
same,Kd,HLA-B*53:01; source organism: Variola virus,≥ 78100 nM
same,Kd,HLA-B*07:02; source organism: Variola virus,11900 nM
APSASAFFGM,Kd,HLA-B*35:01; [3],2140 nM
same,Kd,HLA-B*54:01; [3],≥ 42700 nM
same,Kd,HLA-B*51:01 [1]; [3],1990 nM
same,Kd,HLA-B*53:01; [3],4110 nM
same,Kd,HLA-B*07:02; [3],122 nM
DPVYISQFSY,Kd,HLA-B*35:01; [4],928 nM
same,Kd,HLA-B*54:01; [4],≥ 38600 nM
same,Kd,HLA-B*51:01 [1]; [4],≥ 69600 nM
same,Kd,HLA-B*53:01; [4],10500 nM
same,Kd,HLA-B*07:02; [4],≥ 69600 nM
DTAWDFGSI,Kd,HLA-A*68:02; [5],3.09 nM
same,Kd,HLA-A*26:01,562 nM
ELESQISEL,Kd,HLA-A*68:02; source organism: Homo sapiens,≥ 60000 nM
same,Kd,HLA-A*02:01; source organism: Homo sapiens,≥ 78100 nM
ELVENGKKV,Kd,HLA-A*68:02; source organism: Homo sapiens,6350 nM
same,Kd,HLA-A*02:06; source organism: Homo sapiens,9570 nM
EPVPLTVKM,Kd,HLA-B*35:01; [6],63.4 nM
same,Kd,HLA-B*54:01; [6],≥ 69500 nM
same,Kd,HLA-B*51:01 [1]; [6],12700 nM
same,Kd,HLA-B*53:01; [6],327 nM
same,Kd,HLA-B*07:02; [6],15000 nM
ETQHGTTVV,Kd,HLA-A*68:02; [7],8.6 nM
ETWNRQDLLV,Kd,HLA-A*68:02; [5],17 nM
FIAFLRFLAI,Kd,HLA-A*68:02; [5],417 nM
same,Kd,HLA-A*02:06; [5],14.9 nM
same,Kd,HLA-B*53:01; [5],1320 nM
FPDIPVNNNI,Kd,HLA-B*35:01; [4],442 nM
same,Kd,HLA-B*54:01; [4],69.3 nM
same,Kd,HLA-B*51:01 [1]; [4],66.7 nM
same,Kd,HLA-B*53:01; [4],1.22 nM
same,Kd,HLA-B*07:02; [4],821 nM
FPLNSKVKVI,Kd,HLA-B*35:01; [3],≥ 29400 nM
same,Kd,HLA-B*54:01; [3],927 nM
same,Kd,HLA-B*51:01 [1]; [3],4710 nM
same,Kd,HLA-B*53:01; [3],1070 nM
same,Kd,HLA-B*07:02; [3],≥ 33400 nM
FPNITNLCPF,Kd,HLA-B*35:01; [3],1.66 nM
same,Kd,HLA-B*54:01; [3],445 nM
same,Kd,HLA-B*51:01 [1]; [3],6.33 nM
same,Kd,HLA-B*53:01; [3],0.782 nM
same,Kd,HLA-B*07:02; [3],56.6 nM
FPPTSFGPLV,Kd,HLA-B*35:01; [3],≥ 24700 nM
same,Kd,HLA-B*54:01; [3],1260 nM
same,Kd,HLA-B*51:01 [1]; [3],6260 nM
same,Kd,HLA-B*53:01; [3],4860 nM
same,Kd,HLA-B*07:02; [3],2080 nM
GAITSAHFM,Kd,HLA-B*57:01; source organism: Mycobacterium tuberculosis str. Haarlem,687 nM
same,Kd,HLA-B*58:01; source organism: Mycobacterium tuberculosis,905 nM
HVDGKILFV,Kd,HLA-A*33:01,≥ 77700 nM
same,Kd,HLA-B*35:01; [4],≥ 77400 nM
same,Kd,HLA-B*54:01; [4],≥ 78100 nM
same,Kd,HLA-A*68:01,≥ 77700 nM
same,Kd,HLA-B*51:01 [1]; [4],≥ 68500 nM
same,Kd,HLA-A*03:01,3140 nM
same,Kd,HLA-A*11:01; [4],≥ 72300 nM
same,Kd,HLA-B*53:01; [4],11500 nM
same,Kd,HLA-B*07:02; [4],≥ 77500 nM
same,Kd,HLA-A*31:01,≥ 40500 nM
IPCRDVVL,Kd,HLA-B*35:01; [8],17100 nM
same,Kd,HLA-B*54:01; [8],≥ 87700 nM
same,Kd,HLA-B*51:01 [1]; [8],67.7 nM
same,Kd,HLA-B*53:01; [8],≥ 49100 nM
same,Kd,HLA-B*07:02; [8],3680 nM
KPLLAPHHVV,Kd,HLA-B*35:01; [3],≥ 69900 nM
same,Kd,HLA-B*54:01; [3],7250 nM
same,Kd,HLA-B*51:01 [1]; [3],≥ 69600 nM
same,Kd,HLA-B*53:01; [3],≥ 69900 nM
same,Kd,HLA-B*07:02; [3],179 nM
LEESHPGIF,Kd,HLA-B*40:01,85.3 nM
same,Kd,HLA-B*44:02,≥ 20000 nM
LLQEENRQKL,Kd,HLA-A*68:02; source organism: Homo sapiens,≥ 60000 nM
LPTSITVPV,Kd,HLA-B*35:01; [9],3.55 nM
same,Kd,HLA-B*54:01; [9],4.01 nM
same,Kd,HLA-B*51:01 [1]; [9],1970 nM
same,Kd,HLA-B*53:01; [9],72.5 nM
same,Kd,HLA-B*07:02; [9],67.1 nM
LPVPLFPGF,Kd,HLA-B*51:01 [2],249 nM
LPYPQPQLPY,Kd,HLA-B*35:01; [8],0.487 nM
same,Kd,HLA-B*54:01; [8],8530 nM
same,Kd,HLA-B*51:01 [1]; [8],9.22 nM
same,Kd,HLA-B*53:01; [8],4.49 nM
same,Kd,HLA-B*07:02; [8],4330 nM
MAMFYAHAL,Kd,HLA-A*32:01,12500 nM
same,Kd,HLA-B*08:01; [4],1.15 nM
MLNNSFYYM,Kd,HLA-B*54:01; [9],7520 nM
same,Kd,HLA-A*11:01; [9],195 nM
MPGVLSYVV,Kd,HLA-B*35:01; [10],22.2 nM
same,Kd,HLA-B*54:01; [10],0.507 nM
same,Kd,HLA-B*51:01 [1]; [10],208 nM
same,Kd,HLA-B*53:01; [10],187 nM
same,Kd,HLA-B*07:02; [10],1030 nM
MPSACANGWI,Kd,HLA-B*35:01; [4],≥ 69900 nM
same,Kd,HLA-B*54:01; [4],5400 nM
same,Kd,HLA-B*51:01 [1]; [4],≥ 43500 nM
same,Kd,HLA-B*53:01; [4],5240 nM
same,Kd,HLA-B*07:02; [4],≥ 31400 nM
MTATPPGTA,Kd,HLA-A*68:02; [11],35.2 nM
MTDDIGMGV,Kd,HLA-A*68:02; [12],5.13 nM
same,Kd,HLA-A*02:06; [12],7.05 nM
MTTEDMLTV,Kd,HLA-A*68:02; [11],19.1 nM
same,Kd,HLA-A*01:01,7380 nM
same,Kd,HLA-A*02:06; [11],2.85 nM
MVSAGSGEV,Kd,HLA-A*68:02; [5],29.6 nM
same,Kd,HLA-A*02:03; [5],94.6 nM
NMDPLNDNI,Kd,HLA-A*68:02; source organism: Homo sapiens,≥ 85700 nM
same,Kd,HLA-A*02:01; source organism: Homo sapiens,1930 nM
NTTANISLTA,Kd,HLA-A*68:02; [5],44.6 nM
PPYCTIAPVGI,Kd,HLA-B*35:01; [8],≥ 63700 nM
same,Kd,HLA-B*54:01; [8],≥ 27700 nM
same,Kd,HLA-B*51:01 [1]; [8],≥ 41300 nM
same,Kd,HLA-B*53:01; [8],≥ 63700 nM
same,Kd,HLA-B*07:02; [8],4470 nM
QPFPSQQPYL,Kd,HLA-B*35:01; [8],433 nM
same,Kd,HLA-B*54:01; [8],10800 nM
same,Kd,HLA-B*51:01 [1]; [8],10.3 nM
same,Kd,HLA-B*53:01; [8],8540 nM
same,Kd,HLA-B*07:02; [8],17500 nM
RPLMESELVI,Kd,HLA-B*35:01; [3],395 nM
same,Kd,HLA-B*54:01; [3],≥ 46000 nM
same,Kd,HLA-B*51:01 [1]; [3],32.9 nM
same,Kd,HLA-B*53:01; [3],217 nM
same,Kd,HLA-B*07:02; [3],666 nM
RRKRSVTMLL,Kd,HLA-B*08:01; [5],3650 nM
RSIRKFNTM,Kd,HLA-B*15:01; [4],4.38 nM
same,Kd,HLA-B*08:01; [4],16.9 nM
RTRPPPCPH,Kd,HLA-B*57:01; [13],935 nM
same,Kd,HLA-B*58:01; [13],≥ 20000 nM
SAYTALFSGV,Kd,HLA-A*68:02; [11],9.19 nM
same,Kd,HLA-A*02:06; [11],1.16 nM
same,Kd,HLA-A*02:03; [11],7.14 nM
SLNALFVML,Kd,HLA-A*32:01,1230 nM
same,Kd,HLA-B*08:01; [4],1260 nM
SPYVKFIYF,Kd,HLA-B*08:01; [4],1780 nM
STANVSLAAI,Kd,HLA-A*68:02; [11],2.12 nM
same,Kd,HLA-A*01:01,≥ 47800 nM
STMTLLCLI,Kd,HLA-A*68:02; [7],3.75 nM
TPTIEDDKIV,Kd,HLA-B*35:01; [4],≥ 52200 nM
same,Kd,HLA-B*54:01; [4],3150 nM
same,Kd,HLA-B*51:01 [1]; [4],10100 nM
same,Kd,HLA-B*53:01; [4],≥ 29000 nM
same,Kd,HLA-B*07:02; [4],19700 nM
WLGARYLEF,Kd,HLA-B*15:01; [11],158 nM
same,Kd,HLA-B*08:01; [11],2.26 nM
same,Kd,HLA-A*23:01,82.7 nM
YVNAILYQI,Kd,HLA-A*68:02; [4],1860 nM
same,Kd,HLA-A*02:06; [4],1980 nM
same,Kd,HLA-A*02:01; [4],1430 nM
same,Kd,HLA-A*02:02,2050 nM
same,Kd,HLA-A*02:03; [4],9940 nM
